Data set [1] has as its target T1, TFAM (UniProt Q00059 43-245).
T1 sequence: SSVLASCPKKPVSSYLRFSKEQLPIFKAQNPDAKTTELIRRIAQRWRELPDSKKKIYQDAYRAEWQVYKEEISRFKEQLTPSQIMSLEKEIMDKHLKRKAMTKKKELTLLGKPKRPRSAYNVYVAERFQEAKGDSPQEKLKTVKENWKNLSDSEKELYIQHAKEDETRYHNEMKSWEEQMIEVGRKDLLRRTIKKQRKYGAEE
The data set is described as follows: fluorescence anisotropy; 10 mM Mg acetate; apparent Kd; 50 mM Tris acetate pH 7.5, 100 mM Na glutamate, 50 mM NaCl, 10 mM Mg acetate, 0.5 mM TCEP, 0.01% Tween 20, 0.1 mg/ml BSA, 25 °C; 5 nM DNA, 0-75 nM TFAM. The conditions noted are these: protein: recombinant; tags: N-terminal 6xHis, TEV-cleaved; label: fluorescein (FITC) at 3' end of template strand; blunt.

The target of data set [2] is T1, TFAM. The data set can be described thus: smFRET; bending equilibrium K(F/P) 1.70 ± 0.74; 50 mM Tris acetate pH 7.5, 100 mM Na glutamate, 50 mM NaCl, 10 mM Mg acetate, 0.5 mM TCEP, 0.01% Tween 20, 0.1 mg/ml BSA, 25 °C; 5 nM DNA, 0-75 nM TFAM. To be noted: protein: recombinant; tags: N-terminal 6xHis, TEV-cleaved; label: Atto565 at 5' non-template, Atto647N at 5' template; blunt.

Data set [3] has as its target T1, TFAM. The data set is described as follows: smFRET; bending equilibrium K(F/P) 24.6 ± 7.6; 50 mM Tris acetate pH 7.5, 100 mM Na glutamate, 50 mM NaCl, 10 mM Mg acetate, 0.5 mM TCEP, 0.01% Tween 20, 0.1 mg/ml BSA, 25 °C; 5 nM DNA, 0-75 nM TFAM. To be noted: protein: recombinant; tags: N-terminal 6xHis, TEV-cleaved; label: Atto565 at 5' non-template, Atto647N at 5' template; blunt.

In data set [4] the target is T2, TFAM-ΔC26 (C-tail deletion) (UniProt Q00059 43-220).
T2 sequence: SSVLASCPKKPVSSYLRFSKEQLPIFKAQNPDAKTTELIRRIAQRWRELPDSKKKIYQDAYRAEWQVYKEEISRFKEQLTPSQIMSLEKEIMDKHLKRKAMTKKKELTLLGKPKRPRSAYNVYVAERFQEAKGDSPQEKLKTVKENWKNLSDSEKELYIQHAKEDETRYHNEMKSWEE
The data set can be described thus: fluorescence anisotropy; 10 mM Mg acetate; 50 mM Tris acetate pH 7.5, 100 mM Na glutamate, 50 mM NaCl, 10 mM Mg acetate, 0.5 mM TCEP, 0.01% Tween 20, 0.1 mg/ml BSA, 25 °C; 5 nM DNA, 0-75 nM TFAM. To be noted: protein: recombinant; tags: SUMO fusion, cleaved; label: fluorescein (FITC) at 3' end of template strand; blunt.

In data set [5] the target is T1, TFAM. The data set can be described thus: smFRET; bending equilibrium K(F/P) 0.59 ± 0.24; 50 mM Tris acetate pH 7.5, 100 mM Na glutamate, 50 mM NaCl, 10 mM Mg acetate, 0.5 mM TCEP, 0.01% Tween 20, 0.1 mg/ml BSA, 25 °C; 5 nM DNA, 0-75 nM TFAM. The conditions noted are these: protein: recombinant; tags: N-terminal 6xHis, TEV-cleaved; label: Atto565 at 5' non-template, Atto647N at 5' template; blunt.

From PMC11211510, “Sequence-specific dynamic DNA bending explains mitochondrial TFAM’s dual role in DNA packaging and transcription initiation” come the findings set out here.

B1: LSP (-41 to -12), fluorescein (dsDNA)
DNA 1: TGTGTTAGTTGGGGGGTGACTGTTAAAAGT
DNA 2: ACTTTTAACAGTCACCCCCCAACTAACACA
For B1, in the data set with TFAM [1], the Kd is ~9 nM.

B2: HSP, Atto565/Atto647N (dsDNA)
DNA 1: CACACCGCTGCTAACCCCATACCCCGAACC
DNA 2: GGTTCGGGGTATGGGGTTAGCAGCGGTGTG
modifications: biotin-2xPEG18 at 3' end of template
For the molecule B2, the binding result with TFAM [2] is “binds”.

B3: LSP, Atto565/Atto647N (dsDNA)
DNA 1: TGTGTTAGTTGGGGGGTGACTGTTAAAAGT
DNA 2: ACTTTTAACAGTCACCCCCCAACTAACACA
modifications: biotin-2xPEG18 at 3' end of template
Regarding B3, the binding result in the data set with TFAM [3] is recorded as “binds”.

B4: NS (non-specific), fluorescein (dsDNA)
DNA 1: TAGCAGGAGCAGGAACAGGATGAACAAGCA
DNA 2: TGCTTGTTCATCCTGTTCCTGCTCCTGCTA
Take B4: the Kd in data set [4] was ~100 nM; with TFAM [1] it was ~44 nM.

B5: NS, Atto565/Atto647N (dsDNA)
DNA 1: TAGCAGGAGCAGGAACAGGATGAACAAGCA
DNA 2: TGCTTGTTCATCCTGTTCCTGCTCCTGCTA
modifications: biotin-2xPEG18 at 3' end of template
With B5, in the data set with TFAM [5], the binding result is “binds”.

B6: HSP (-41 to -12), fluorescein (dsDNA)
DNA 1: CACACCGCTGCTAACCCCATACCCCGAACC
DNA 2: GGTTCGGGGTATGGGGTTAGCAGCGGTGTG
Regarding B6, the Kd was ~100 nM in data set [4] and ~43 nM with TFAM [1].
